From the supplement of paper PMC7125110
± gives the standard error. Fewer inactive variants are shown than the library holds.

B1: glmS ribozyme (parent)
chain: AUAAAAGCGCCAGAACUACAGAAAUGUAGUUGACGAGGAGGAGGUUUAUCGAAUUUUCGGCGGAUGCCUCCAAA

Columns and labels:
Settings in all cases: with glucosamine-6-phosphate
glucosamine-6-phosphate [1] = variants of: B1; assay: self-cleavage kobs at 640 uM GlcN6P; higher = faster cleavage; RNA array
Outline: (§1)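 kcat and KM were obtained from weighted Michaelis–Menten fits across concentrations of kobs values. Those came from one- or two-exponential decay fits to per-tile medians normalised to baseline and to non-cleaving reference variants. The variants were barcoded ribozymes transcribed in situ by E. coli RNA polymerase on sequenced MiSeq chips and tracked through a hybridised Cy3 probe at 37 °C, with 40 μM to 10 mM glucosamine-6-phosphate in HEPES/KCl/Mg(OAc)2 buffer flowed in.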

glucosamine-6-phosphate [2] = variants of: B1; assay: self-cleavage kobs at 2500 uM GlcN6P; higher = faster cleavage; RNA array
Outline: as §1

glucosamine-6-phosphate [3] = variants of: B1; assay: self-cleavage kobs at 10000 uM GlcN6P; higher = faster cleavage; RNA array
Outline: as §1

| Variant | self-cleavage kobs at 640 uM GlcN6P (glucosamine-6-phosphate [1]) | self-cleavage kobs at 2500 uM GlcN6P (glucosamine-6-phosphate [2]) | self-cleavage kobs at 10000 uM GlcN6P (glucosamine-6-phosphate [3]) |
| --- | --- | --- | --- |
| A15U U31A G32C | 4.96e-05 ± 2e-05 s⁻¹ | 6.02e-05 ± 2.5e-05 s⁻¹ | – |
| C16G U54A U65G | 0.000305 ± 0.00011 s⁻¹ | 0.000707 ± 0.00023 s⁻¹ | – |
| C16G A33C G38U A52U | < 1e-05 s⁻¹ | – | – |
| A14U G44U U69C C71A | < 1e-05 s⁻¹ | – | < 1e-05 s⁻¹ |
| A15U G29A C68U | 5.07e-05 ± 1.3e-05 s⁻¹ | 7.12e-05 ± 2.1e-05 s⁻¹ | – |
| A14C G41C G44C C50G | < 1e-05 s⁻¹ | – | – |
| C16G A39C G41U U56C C67U | < 1e-05 s⁻¹ | – | – |
| C16A G41U G59A | < 1e-05 s⁻¹ | < 1e-05 s⁻¹ | – |
| C16A U55G C58G U65G | < 1e-05 s⁻¹ | – | – |
| C16G G29U G35A | < 1e-05 s⁻¹ | – | – |
| A15G G38A G66U | < 1e-05 s⁻¹ | – | – |
| A15U U30A A53U C58A U65C U69A C71G | 4.92e-05 ± 2e-05 s⁻¹ | – | – |
| A15C G29U U30A | 0.000117 ± 2.7e-05 s⁻¹ | 0.000332 ± 0.00011 s⁻¹ | – |
| A14U C34U G35A C71U | < 1e-05 s⁻¹ | – | – |
| A14G G29U A39U | 0.00293 ± 0.0011 s⁻¹ | – | – |
| A15U U49G A64C | < 1e-05 s⁻¹ | – | – |
| A15C C58U C61A C70U | 6.5e-05 ± 2.2e-05 s⁻¹ | – | – |
| A14U A36U G38C G62A | < 1e-05 s⁻¹ | – | – |
| A14U A33U C50G G66U | 0.0013 ± 0.00063 s⁻¹ | 6.05e-05 ± 2.7e-05 s⁻¹ | – |
| A15U C16A U47A C61G C68G | 8.84e-05 ± 3.3e-05 s⁻¹ | – | – |
| A14C U30C G38U A39U A53U U55G | < 1e-05 s⁻¹ | < 1e-05 s⁻¹ | – |
| A15C C16G U55C C61G | < 1e-05 s⁻¹ | – | – |
| A15C U46A G60U | < 1e-05 s⁻¹ | – | – |

| Variant | self-cleavage kobs at 640 uM GlcN6P (glucosamine-6-phosphate [1]) | self-cleavage kobs at 2500 uM GlcN6P (glucosamine-6-phosphate [2]) | self-cleavage kobs at 10000 uM GlcN6P (glucosamine-6-phosphate [3]) |
| --- | --- | --- | --- |
| C16A G63U U69A | 0.000106 ± 3.1e-05 s⁻¹ | – | – |
| C16A G43U | < 1e-05 s⁻¹ | – | < 1e-05 s⁻¹ |
| C16U A36U G38U U46G | < 1e-05 s⁻¹ | < 1e-05 s⁻¹ | < 1e-05 s⁻¹ |
| A14C U30A G63A C67A | < 1e-05 s⁻¹ | – | – |
| A15U A36C G44U C58G G59C C61U G63U U69A | < 1e-05 s⁻¹ | – | – |
| A14U U31A G32U C67U | 5.86e-05 ± 2.4e-05 s⁻¹ | 0.000276 ± 7.5e-05 s⁻¹ | – |
| C16G G59C C61U | < 1e-05 s⁻¹ | < 1e-05 s⁻¹ | – |
| A14C G40C G41C G44C | < 1e-05 s⁻¹ | < 1e-05 s⁻¹ | – |
| C16G G62U G66C | < 1e-05 s⁻¹ | – | – |
| A14U G29C A64G | < 1e-05 s⁻¹ | – | – |
| A14C U56G C67G | 0.000636 ± 0.00024 s⁻¹ | 0.00165 ± 0.00073 s⁻¹ | 0.0219 ± 0.0084 s⁻¹ |
| A15C U56A U65G | 5.97e-05 ± 2.3e-05 s⁻¹ | 0.000177 ± 6.3e-05 s⁻¹ | 0.000562 ± 0.00012 s⁻¹ |
| A15C U47G G66U | < 1e-05 s⁻¹ | – | – |
| A14U A42C G51U | < 1e-05 s⁻¹ | – | – |
| A15G G29U C70G | 0.000143 ± 5e-05 s⁻¹ | 9.63e-05 ± 3.6e-05 s⁻¹ | – |
| A15G G29U C70U | 0.000127 ± 2.4e-05 s⁻¹ | 9.76e-05 ± 3.9e-05 s⁻¹ | – |
| A14U G38A A53G G63U | < 1e-05 s⁻¹ | – | – |
| C16A U30G G35A C50A | < 1e-05 s⁻¹ | – | < 1e-05 s⁻¹ |
| A15G U57A | 0.000105 ± 2e-05 s⁻¹ | 0.000107 ± 2.8e-05 s⁻¹ | 0.000392 ± 5.3e-05 s⁻¹ |
| C16U A39C U65G | 0.000131 ± 3.8e-05 s⁻¹ | 8.33e-05 ± 2.6e-05 s⁻¹ | 0.000837 ± 0.00011 s⁻¹ |
| A14G U49C | < 1e-05 s⁻¹ | – | – |
| A15U A52G C58U | < 1e-05 s⁻¹ | – | – |
| A14U A36C G44A U55C C61A | < 1e-05 s⁻¹ | – | – |

| Variant | self-cleavage kobs at 640 uM GlcN6P (glucosamine-6-phosphate [1]) | self-cleavage kobs at 2500 uM GlcN6P (glucosamine-6-phosphate [2]) | self-cleavage kobs at 10000 uM GlcN6P (glucosamine-6-phosphate [3]) |
| --- | --- | --- | --- |
| A14G A39U G41U G51A G59A | < 1e-05 s⁻¹ | – | – |
| A15C A64C C71U | < 1e-05 s⁻¹ | – | – |
| A15C U49G G62U A64C C70U | < 1e-05 s⁻¹ | – | – |
| A14U U31A G37C G59C | < 1e-05 s⁻¹ | < 1e-05 s⁻¹ | – |
| A15U U31G A48U | < 1e-05 s⁻¹ | – | – |
| A14G G35C A48U | < 1e-05 s⁻¹ | – | – |
| A14C C34G A36C G59C | < 1e-05 s⁻¹ | – | – |
| A14U A48G G63C | < 1e-05 s⁻¹ | – | – |
| A14G G37A A52G | 5.33e-05 ± 1.3e-05 s⁻¹ | 9.21e-05 ± 2e-05 s⁻¹ | – |
| A15U C34U G41U C71U | < 1e-05 s⁻¹ | – | – |
| A15U C16G G37C | < 1e-05 s⁻¹ | – | – |
| A15U C16U A39C | 5.94e-05 ± 1.6e-05 s⁻¹ | – | – |
| C16A U30G G35A U69C | < 1e-05 s⁻¹ | < 1e-05 s⁻¹ | – |
| A15U U31C G41U C70U | 3.6e-05 ± 1.4e-05 s⁻¹ | – | 6.84e-05 ± 1.3e-05 s⁻¹ |
| A15G U30C C34G A36C G41U U49A C70A | < 1e-05 s⁻¹ | < 1e-05 s⁻¹ | – |
| A14C G40U U56G U65A C71U | 0.000351 ± 6.7e-05 s⁻¹ | 0.00117 ± 0.00023 s⁻¹ | – |
| A14U C34U A52G | < 1e-05 s⁻¹ | < 1e-05 s⁻¹ | < 1e-05 s⁻¹ |
| A14G C16A U56A | 0.00547 ± 0.0015 s⁻¹ | 0.00293 ± 0.0013 s⁻¹ | – |
| A14G C61G G66U C67G | 0.000103 ± 2.7e-05 s⁻¹ | – | – |
| A15C G41C A48G | < 1e-05 s⁻¹ | – | – |
| A14U U46A C68U | 4.63e-05 ± 1.7e-05 s⁻¹ | 0.000119 ± 2e-05 s⁻¹ | – |
| A15G G29A G63C | < 1e-05 s⁻¹ | – | – |
| A14C C50U U54A | < 1e-05 s⁻¹ | < 1e-05 s⁻¹ | – |
